Earlier results, collected in paper PMC5453503.
Several values for one entry are separate records, joined by “and”; a condition that tells them apart may be missing. Equal entries are not always repeated.

Target: VEGFR2 (Homo sapiens) (UniProt P35968)
UniProt P35968, sequence (P35968 20-1356): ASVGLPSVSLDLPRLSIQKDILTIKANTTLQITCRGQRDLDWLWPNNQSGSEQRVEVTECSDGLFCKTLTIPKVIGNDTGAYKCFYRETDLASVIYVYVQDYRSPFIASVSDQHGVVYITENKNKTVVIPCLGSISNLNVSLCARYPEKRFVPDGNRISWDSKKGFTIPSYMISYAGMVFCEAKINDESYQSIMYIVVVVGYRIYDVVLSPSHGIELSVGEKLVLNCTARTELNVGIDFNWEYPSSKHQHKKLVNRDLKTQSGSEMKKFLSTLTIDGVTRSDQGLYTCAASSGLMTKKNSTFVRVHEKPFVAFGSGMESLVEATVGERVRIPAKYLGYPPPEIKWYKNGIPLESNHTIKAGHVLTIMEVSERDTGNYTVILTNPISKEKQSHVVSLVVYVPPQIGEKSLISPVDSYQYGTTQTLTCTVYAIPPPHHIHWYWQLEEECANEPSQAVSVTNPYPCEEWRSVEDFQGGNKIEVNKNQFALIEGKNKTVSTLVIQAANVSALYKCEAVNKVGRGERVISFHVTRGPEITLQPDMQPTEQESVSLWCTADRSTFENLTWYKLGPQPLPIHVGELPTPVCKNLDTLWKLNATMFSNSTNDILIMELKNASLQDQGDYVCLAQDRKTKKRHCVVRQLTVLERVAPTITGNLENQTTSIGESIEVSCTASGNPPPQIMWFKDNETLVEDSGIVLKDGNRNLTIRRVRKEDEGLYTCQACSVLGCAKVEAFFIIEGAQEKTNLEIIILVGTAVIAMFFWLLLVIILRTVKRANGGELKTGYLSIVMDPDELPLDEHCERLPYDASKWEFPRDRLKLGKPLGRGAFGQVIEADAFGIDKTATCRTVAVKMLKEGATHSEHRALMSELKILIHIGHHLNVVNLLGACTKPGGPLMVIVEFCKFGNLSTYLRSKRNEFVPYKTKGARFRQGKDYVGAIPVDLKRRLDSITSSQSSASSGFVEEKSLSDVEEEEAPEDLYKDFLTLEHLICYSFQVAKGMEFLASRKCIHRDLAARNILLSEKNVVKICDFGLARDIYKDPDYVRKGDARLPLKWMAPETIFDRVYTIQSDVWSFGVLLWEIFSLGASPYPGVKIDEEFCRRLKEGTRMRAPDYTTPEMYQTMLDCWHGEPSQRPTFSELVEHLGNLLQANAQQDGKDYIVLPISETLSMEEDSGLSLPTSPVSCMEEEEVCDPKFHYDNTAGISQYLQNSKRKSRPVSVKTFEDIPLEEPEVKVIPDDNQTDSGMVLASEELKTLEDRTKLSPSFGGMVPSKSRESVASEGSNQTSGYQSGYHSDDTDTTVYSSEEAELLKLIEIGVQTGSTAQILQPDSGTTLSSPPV

For VEGF165a (from UniProt P15692), the Kd is given as 0.41 nM and 0.76 nM.
